“And” between values parts separate entries of the source, which are not always exact repeats. Equal entries are not always repeated. Bridges are numbered along the chain shown (N, C = ends). Roman numbers before positions name the chains, in order. Where no end group is shown, it is not given here.

As usually defined, the IC50 is the concentration that gives 50% inhibition.

The target of assay [1] is T1, Nrp1 (Nrp1-b1b2) / VEGF-A binding (Homo sapiens, UniProt O14786).
T1 sequence (O14786 274-586): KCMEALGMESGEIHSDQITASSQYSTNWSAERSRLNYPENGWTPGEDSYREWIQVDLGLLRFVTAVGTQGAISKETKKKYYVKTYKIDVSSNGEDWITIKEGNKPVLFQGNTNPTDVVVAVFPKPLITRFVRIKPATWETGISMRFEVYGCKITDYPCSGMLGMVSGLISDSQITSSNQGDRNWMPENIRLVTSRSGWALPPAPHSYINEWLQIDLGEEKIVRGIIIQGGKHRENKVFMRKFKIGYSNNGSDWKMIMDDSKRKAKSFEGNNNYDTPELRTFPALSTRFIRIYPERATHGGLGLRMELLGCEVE
The experiment in a line: Plate-based inhibition of AP-VEGF-A binding to Nrp1. The note with it: comparison of IC50 values, in words.

Assay [2] has as its target T2, Nrp1-b1b2 (residue 274 to 586) (UniProt O14786 274-586).
T2 sequence (looked up): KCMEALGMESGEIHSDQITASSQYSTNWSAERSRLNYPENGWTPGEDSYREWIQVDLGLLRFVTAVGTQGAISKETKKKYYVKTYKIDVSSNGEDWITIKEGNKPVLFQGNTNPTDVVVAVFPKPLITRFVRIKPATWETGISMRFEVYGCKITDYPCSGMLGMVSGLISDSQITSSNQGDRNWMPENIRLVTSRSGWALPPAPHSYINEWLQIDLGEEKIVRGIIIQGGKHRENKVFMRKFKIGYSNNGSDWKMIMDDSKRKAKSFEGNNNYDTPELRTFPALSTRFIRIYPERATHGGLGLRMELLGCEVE
The experiment in a line: plate-based competition assay with alkaline phosphatase fused ligand.

In the case of “I: CQGYWRHVPPSPREAPGAPRSPEPDQKKPRNRR-OH / II: CQGYWRHVPPSPREAPGAPRSPEPDQKKPRNRR-OH (disulfide I:1-II:1) [ΔN-C-furSema]”, the “potency relative to C-furSema in inhibiting VEGF-A binding to Nrp1” value in assay [1] is “approximately five-fold less potent”.

B1: ΔN-C-furSema (peptide)
chain: CQGYWRHVPPSPREAPGAPRSPEPDQKKPRNRR
B1: in assay [2], the IC50 came out at 111 nM.

B2: furin-processed C-terminal domain of Sema3F (C-furSema), homodimeric (peptide)
chain: GLIHQYCQGYWRHVPPSPREAPGAPRSPEPDQKKPRNRR
modifications: also: homodimer
As to B2, the IC50 in assay [2] was 25 nM and 24 nM.

B3: C-furSema R779A (peptide)
chain: GLIHQYCQGYWRHVPPSPREAPGAPRSPEPDQKKPRNRA
modifications: also: homodimer, intermolecular disulfide Cys7-Cys7
In the case of B3, in assay [2], the 50% inhibitory concentration (IC50) turned out to be 4500 nM.

B4: monomeric C-furSema^Mon (peptide)
chain: GLIHQYSQGYWRHVPPSPREAPGAPRSPEPDQKKPRNRR
For B4, the half-inhibitory concentration (IC50) in assay [2] amounted to 1300 nM.

B5: Sema3A.3, furin processed variant of the Sema3A C-terminal domain (peptide)
chain: NTMDEFCEQVWKRDRKQRRQRPGHTPGNSNKWKHLQENKKGRNRRTHEFERAPR
B5 registered a half-inhibitory concentration (IC50) in assay [2] of 27 nM.

B6: Sema3A.1, shortest furin processed variant of the Sema3A C-terminal domain (peptide)
chain: NTMDEFCEQVWKRDRKQR
For B6, in assay [2], the IC50 was found to be 1100 nM.

B7: Sema3A.2, furin processed variant of the Sema3A C-terminal domain (peptide)
chain: NTMDEFCEQVWKRDRKQRRQRPGHTPGNSNKWKHLQENKKGRNRR
For B7, in assay [2], the IC50 came out at 45 nM.

(Values after PMC3873856 (Biochemistry, 2013).)
